Reference: patent publication US20250197485A1, “Anti-ED-A Antibodies for the Treatment of Pulmonary Hypertension” (Universitätsklinikum Jena, priority 2022, published 2025)

Experiments:
MCT-induced PH [1] = assay: Echocardiographic assessment in mouse model of MCT-induced PH; assay type: in vivo, C57BL/6 mice
Description: PH was induced in C57BL/6 mice (bodyweight: 25-30 g). The animals were obtained from ZET facility (Zentale Experimentelle Tierhaltung) of the University Hospital Jena (UKJ, Jena, Germany). Prior to PH induction, mice were allowed to acclimatize for at least 7 days with ad libitum access to food and water as well as controlled light/dark cycles. 41 animals were investigated divided into the following five experimental groups: • 1) sham induced controls (n=7) • 2) MCT induced PH (n=12) • 3) MCT induced PH+MAC (n=6) • 4) MCT induced PH+F8 IgG (n=8) • 5) MCT induced PH+KSF IgG (n=8) For PH induction, the Monocrotaline (MCT, Carl Roth, Germany) method was used. The sham induced controls were injected with 30 μl NaCl not containing MCT at day 1 (single dose; intraperitoneally, i.p.). […] The other 4 experimental groups were injected with MCT to induce PH (single dose; intraperitoneally, i.p.; 60 mg/kg body weight; volume 30 μl). Animals in the MCT induced PH+MAC group received the drug (Macitentan, Actelion Pharmaceuticals Ltd.) from day 14 to day 28 (once daily; per os; 15 mg/kg body weight). Animals in the MCT induced PH+F8 IgG group received F8 IgG 3 times on day 14, 16 and 18 (intravenously, i.v.; 195 μg/injection; volume 200 μl). Similarly, animals in the MCT induced PH+KSF IgG group received KSF IgG 3 times on day 14, 16 and 18 (intravenously, i.v.; 195 μg/injection; volume 120 μl). Echocardiographic assessment was performed on day 28 using the Vevo 770 Rodent-Ultrasound-System, Visual Sonic, Canada, 17 MHz probe RMV176. Before echocardiography, mice were anesthetized with isoflurane for a duration time of less than 10 minutes (isoflurane-CP, 2.5V %, FiO2 1.0, oxygen per inhalation-flow dosage). Body temperature and respiratory rate were continuously monitored. All surrogate parameters of right ventricular (RV) morphology and function were assessed, among others, RV basal and medial diameters (in mm), RV length (in mm), tricuspid annular plane systolic excursion (TAPSE, in mm), right atrial area (RA area, in mm^2) or main pulmonary artery diameter (MPA, in mm). Statistical analyses were performed using IBM SPSS statistical software, version 28.0 (IBM SPSS Statistics for Windows. Armonk, NY, USA). Data are expressed as mean±standard deviation. Kruskal-Wallis and Mann-Whitney-U test were used to test for significant differences between the different groups. A p-value<0.05 as statistically significant.

MCT-induced PH [2] = assay: Histological evaluation of lung tissue damage (sum-score) in mouse model of MCT-induced PH; assay type: in vivo, C57BL/6 mice
Description: PH was induced in C57BL/6 mice (bodyweight: 25-30 g). The animals were obtained from ZET facility (Zentale Experimentelle Tierhaltung) of the University Hospital Jena (UKJ, Jena, Germany). Prior to PH induction, mice were allowed to acclimatize for at least 7 days with ad libitum access to food and water as well as controlled light/dark cycles. 41 animals were investigated divided into the following five experimental groups: • 1) sham induced controls (n=7) • 2) MCT induced PH (n=12) • 3) MCT induced PH+MAC (n=6) • 4) MCT induced PH+F8 IgG (n=8) • 5) MCT induced PH+KSF IgG (n=8) For PH induction, the Monocrotaline (MCT, Carl Roth, Germany) method was used. The sham induced controls were injected with 30 μl NaCl not containing MCT at day 1 (single dose; intraperitoneally, i.p.). […] The other 4 experimental groups were injected with MCT to induce PH (single dose; intraperitoneally, i.p.; 60 mg/kg body weight; volume 30 μl). Animals in the MCT induced PH+MAC group received the drug (Macitentan, Actelion Pharmaceuticals Ltd.) from day 14 to day 28 (once daily; per os; 15 mg/kg body weight). Animals in the MCT induced PH+F8 IgG group received F8 IgG 3 times on day 14, 16 and 18 (intravenously, i.v.; 195 μg/injection; volume 200 μl). Similarly, animals in the MCT induced PH+KSF IgG group received KSF IgG 3 times on day 14, 16 and 18 (intravenously, i.v.; 195 μg/injection; volume 120 μl). Microscopic evaluation to assess histopathological lung tissue damage was performed using H&E as well as Sirius Red stained lung tissue sections according to a defined sum-score (between 0 and 12; maximum score value=highest level of tissue damage) integrating certain histological alterations frequently occurring in PH: percentage of atelectasis area, percentage of emphysema area, degree of media hypertrophy of peribronchial arteries, presence of perivascular cellular edema of peribronchial arteries, and degree of media hypertrophy of small arteries. Statistical analyses were performed using IBM SPSS statistical software, version 28.0 (IBM SPSS Statistics for Windows. Armonk, NY, USA). Data are expressed as mean±standard deviation. Kruskal-Wallis and Mann-Whitney-U test were used to test for significant differences between the different groups. A p-value<0.05 as statistically significant.

[3] = in contrast to treatment with KSF IgG

B1: F8 IgG: Chimaeric anti-ED-A antibody: human F8 VH/VL fused to murine IgG2a constant regions; heavy chain SEQ ID NO: 11, light chain SEQ ID NO: 12 (antibody)
heavy: EVQLLESGGGLVQPGGSLRLSCAASGFTFSLFTMSWVRQAPGKGLEWVSAISGSGGSTYYADSVKGRFTISRDNSKNTLYLQMNSLRAEDTAVYYCAKSTHLYLFDYWGQGTLVTVSSAKTTAPSVYPLAPVCGDTTGSSVTLGCLVKGYFPEPVTLTWNSGSLSSGVHTFPAVLQSDLYTLSSSVTVTSSTWPSQSITCNVAHPASSTKVDKKIEPRGPTIKPCPPCKCPAPNLLGGPSVFIFPPKIKDVLMISLSPIVTCVVVDVSEDDPDVQISWFVNNVEVHTAQTQTHREDYNSTLRVVSALPIQHQDWMSGKEFKCKVNNKDLPAPIERTISKPKGSVRAPQVYVLPPPEEEMTKKQVTLTCMVTDFMPEDIYVEWTNNGKTELNYKNTEPVLDSDGSYFMYSKLRVEKKNWVERNSYSCSVVHEGLHNHHTTKSFSRTPGK
light: EIVLTQSPGTLSLSPGERATLSCRASQSVSMPFLAWYQQKPGQAPRLLIYGASSRATGIPDRFSGSGSGTDFTLTISRLEPEDFAVYYCQQMRGRPPTFGQGTKVEIKRTDAAPTVSIFPPSSEQLTSGGASVVCFLNNFYPKDINVKWKIDGSERQNGVLNSWTDQDSKDSTYSMSSTLTLTKDEYERHNSYTCEATHKTSTSPIVKSFNRNEC
MCT-induced PH [1]; day 28, all groups p<0.05, F8 IgG p=0.028
  RV medial diameter compared to the negative controls: significantly increased
MCT-induced PH [1]; day 28, p=0.002
  RV basal diameter compared with the MCT-induced PH group without treatment: significant attenuation
MCT-induced PH [1]; day 28, p=0.003
  RA area compared with the MCT-induced PH group with MAC treatment: significant reduction
  TAPSE compared to the MCT-induced PH group with MAC treatment: significant improvement
MCT-induced PH [1]; day 28, p=0.004
  TAPSE compared to the MCT-induced PH group without treatment: significant improvement
MCT-induced PH [1]; day 28, p=0.005
  RV basal diameter compared with the MCT-induced PH group with KSF IgG treatment: significant attenuation
  RV basal diameter compared with the MCT-induced PH group with MAC treatment: significant attenuation
MCT-induced PH [1]; day 28, p=0.009
  RA area compared with the MCT-induced PH group with KSF IgG treatment: significant reduction
MCT-induced PH [1]; day 28, p=0.010
  RV medial diameter compared with the MCT-induced PH group with KSF IgG treatment: significantly reduced
MCT-induced PH [1]; day 28, p=0.017
  RV medial diameter compared with the MCT-induced PH group without treatment: significantly reduced
MCT-induced PH [1]; day 28, p=0.021
  RA area compared with the MCT-induced PH group without treatment: significant reduction
MCT-induced PH [1]; day 28, p=0.049
  TAPSE compared to the MCT-induced PH group with KSF IgG treatment: significant improvement
MCT-induced PH [1]; [3]
  echocardiographic signs of right ventricular load and dysfunction: improvement
MCT-induced PH [2]; MAC p=0.020, F8 IgG p=0.005, KSF IgG p=0.907
  histopathological lung tissue damage (sum-score 0 to 12) compared to the MCT-induced PH group without treatment: significantly reduced
MCT-induced PH [2]; all groups p<0.05, F8 IgG p=0.002
  histopathological lung tissue damage (sum-score 0 to 12) compared to negative controls: significantly increased
MCT-induced PH [2]; [3]
  lung tissue damage at the histopathological level: attenuation
